This is an account of results in article PMC7290940.

For orientation: stoichiometry N means a count of units in the complex or per binding partner.

Assay in all cases: SEC; single purified protein on Superdex 200 10/300 GL, apparent mass against protein standards
Background: SEC sorts molecules by how far they enter the pores of the column.

Experiment [1] concerns the target full-length gp44 with C-terminal His6 tag (gp44–His), bacteriophage 80α (Staphylococcus aureus bacteriophage 80α).
Experiment [2] concerns the target gp44-NTD-His (gp44 residues 1–271) (Staphylococcus aureus bacteriophage 80α).
The target in experiment [3] is untagged CI immunity repressor of bacteriophage 80α (Staphylococcus aureus bacteriophage 80α).
The target in experiment [4] is untagged gp44 of bacteriophage 80α (Staphylococcus aureus bacteriophage 80α).

As to “full-length gp44 with C-terminal His6 tag (gp44–His), bacteriophage 80α (natural protein)”, the stoichiometry N in experiment [1] worked out at 2.

On to “gp44-NTD-His (gp44 residues 1–271) (domain or fragment)”, for which the stoichiometry N in experiment [2] amounted to 2. For the substance “untagged CI immunity repressor of bacteriophage 80α (natural protein)”, the stoichiometry N in experiment [3] came out at 2.

On to “untagged gp44 of bacteriophage 80α (natural protein)”, for which the stoichiometry N in experiment [4] was 2.
